# Results published in article PMC9537594.
# Read-outs that look alike come from different tables or passages of the source.
# Columns and labels:
# [1] = molecular target: WT CA nanotubes (pre-formed tubular assemblies of wild-type HIV-1 CA, hexameric lattices) (HIV-1); test: co-sedimentation; recombinant GST proteins added to pre-formed WT CA nanotubes, 30 min at 4 °C, 21,000 g for 5 min, pellets washed three times; SDS-PAGE or immunoblot; settings: scale: GST-CPSF6(LCR-FG-LCR) molecules per CA hexamer
# [2] = molecular target: isolated native HIV-1 cores (HIV-1); test: pull-down
# [3] = molecular target: isolated native HIV-1 cores (HIV-1); test: pull-down; remark: listed apart in the source
# [4] = molecular target: Cross-linked His-CAhex: disulfide-stabilized hexamer of 6-His-CA(A14C/E45C/W184A/M185A) (HIV-1); test: SPR; Reichert 4-SPR; cross-linked His-CAhex immobilised on an NTA chip via the C-terminal His-tag; peptides 3.9 μM to 2 mM; 0.01 M HEPES pH 7.4, 0.15 M NaCl, 0.05% v/v Surfactant P20; simple kinetic model
substance,measurement,setting,value
GST-CPSF6_(261-358)(LCR-FG-LCR) (from UniProt Q16630-2 261-358) (domain or fragment),stoichiometry N,[1],2.4
GST-CPSF6261-358(LCR-FG-LCR) (domain or fragment),Kd,[2],890 nM
same,Kd,[3],810 nM
NUP153_(1409-1423) 15-mer FG peptide (from UniProt P49790 1409-1423),Kd,[4],131000 nM
